Experimental data: the supplement of paper PMC12783771
± gives the standard deviation of the averaged measurements.

B1: library; numbered along this chain (parent)
chain: MNIQIGELAKRTACPVVTIRFYEQEGLLPPPGRSRGNFRLYGEEHVERLQFIRHCRSLDMPLSDVRTLLSYRKRPDQDCGEVNMLLDEHIRQVESRIGALLELKHHLVELREACSGARPAQSCGILQGLSDCVCDTRGTTAHPSD

How the values were obtained:
[1] = variants of: B1; assay: sfGFP reporter fluorescence (15 h) (µM FITC); higher = higher leak; conditions: library round: Round 0; ligand: none
Method in brief: (§1)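 With 1 µM lead chloride, 30 µM zinc acetate or no metal present, 1 μL Echo-assembled reactions were incubated 15 hr at 30 °C. They contained BL21 Star (DE3) PANOx-SP extract, 30 μg/mL GamS, the pPbrR-sfGFP reporter plasmid and PCR-made linear PbrR templates Echo-normalized to 5 nM. Endpoint sfGFP fluorescence was read on a Synergy Neo2 at 485/528 nm against FITC standards in 50 mM sodium borate pH 8.5. Results are expressed as µM FITC.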

[2] = variants of: B1; assay: sfGFP reporter fluorescence (15 h) (µM FITC); higher = stronger transcriptional activation; conditions: library round: Round 0
Method in brief: as §1

| Variant | sfGFP reporter fluorescence [1] | sfGFP reporter fluorescence ([2]; ligand: 1 µM Pb) | sfGFP reporter fluorescence ([2]; ligand: 30 µM Zn) |
| --- | --- | --- | --- |
| G128Y | 0.0755 | 0.203 ± 0.018 | 1.37 ± 0.067 |
| G128R | 0.161 ± 0.007 | 0.316 ± 0.038 | 3.05 ± 0.31 |
| G128S | 0.0649 ± 0.0036 | 0.0902 ± 0.0083 | 1.3 ± 0.14 |
| G128H | 0.0608 ± 0.0021 | 0.0848 ± 0.0034 | 0.25 ± 0.012 |
| G128C | 0.0629 ± 0.0018 | 0.0964 ± 0.0036 | 0.16 ± 0.008 |
| G128I | 0.066 ± 0.0021 | 0.183 ± 0.015 | 1.68 ± 0.19 |
| G128A | 0.09694 ± 0.00026 | 0.211 ± 0.0065 | 2.53 ± 0.17 |
| G128F | 0.0671 ± 0.0047 | 0.199 ± 0.023 | 1.2 ± 0.12 |
| G128V | 0.0647 ± 0.00078 | 0.131 ± 0.011 | 1.54 ± 0.16 |
| G128W | 0.07165 ± 0.00026 | 0.248 ± 0.028 | 1.39 ± 0.098 |
| G128E | 0.0599 ± 0.00078 | 0.0713 ± 0.0013 | 0.535 ± 0.051 |
| G128M | 0.105 ± 0.0062 | 0.311 ± 0.025 | 3.04 ± 0.38 |
| D135E | 0.0579 ± 0.0021 | 0.0724 ± 0.0029 | 0.648 ± 0.055 |
| D135Q | 0.0574 ± 0.0023 | 0.0826 ± 0.0023 | 1.28 ± 0.13 |
| D135I | 0.0614 ± 0.0018 | 0.0927 ± 0.0031 | 1.72 ± 0.18 |
| D135G | 0.0531 | 0.0764 ± 0.0023 | 0.802 ± 0.074 |
| D135K | 0.0618 ± 0.0018 | 0.085 ± 0.0015 | 0.962 ± 0.052 |
| D135F | 0.0718 ± 0.001 | 0.138 ± 0.0065 | 1.49 ± 0.28 |
| D135M | 0.0636 ± 0.0018 | 0.09639 ± 0.00052 | 2.2 ± 0.33 |
| D135W | 0.0737 ± 0.0036 | 0.146 ± 0.012 | 1.83 ± 0.17 |
| D135N | 0.0588 ± 0.0034 | 0.0847 ± 0.0078 | 1.18 ± 0.32 |
| D135H | 0.0665 ± 0.0018 | 0.107 ± 0.0042 | 2.14 ± 0.068 |

| Variant | sfGFP reporter fluorescence [1] | sfGFP reporter fluorescence ([2]; ligand: 1 µM Pb) | sfGFP reporter fluorescence ([2]; ligand: 30 µM Zn) |
| --- | --- | --- | --- |
| D135A | 0.0733 ± 0.0015 | 0.0834 ± 0.0029 | 0.335 ± 0.0078 |
| D135V | 0.059 ± 0.001 | 0.081 ± 0.0015 | 1.06 ± 0.13 |
| D135R | 0.06267 ± 0.00052 | 0.098 ± 0.0086 | 0.909 ± 0.043 |
| D135L | 0.059 | 0.0898 ± 0.0026 | 1.55 ± 0.24 |
| D135P | 0.0557 ± 0.0036 | 0.0826 ± 0.0049 | 0.672 ± 0.09 |
| D135C | 0.0603 ± 0.0013 | 0.0792 ± 0.0036 | 1.73 ± 0.12 |
| D135S | 0.06011 ± 0.00052 | 0.08723 ± 0.00052 | 0.988 ± 0.095 |
| D135Y | 0.0676 ± 0.0039 | 0.116 ± 0.0073 | 1.46 ± 0.17 |
| D135T | 0.0608 | 0.088 ± 0.001 | 1.13 ± 0.12 |
| D145A | 0.0599 ± 0.0013 | 0.0702 ± 0.0039 | 0.56 ± 0.036 |
| V133A | 0.06341 ± 0.00052 | 0.0746 ± 0.007 | 0.769 ± 0.021 |
| R137A | 0.0579 ± 0.0021 | 0.06524 ± 0.00052 | 0.454 ± 0.062 |
| D131S | 0.0618 ± 0.0034 | 0.1033 ± 0.00052 | 0.962 ± 0.087 |
| D131T | 0.06267 ± 0.00052 | 0.0914 ± 0.012 | 0.747 ± 0.23 |
| D131A | 0.0691 ± 0.00078 | 0.1098 ± 0.00078 | 1.141 ± 0.0013 |
| D131G | 0.0566 ± 0.00078 | 0.0991 ± 0.0034 | 0.604 ± 0.15 |
| D131K | 0.0706 ± 0.0029 | 0.127 ± 0.012 | 1.5 ± 0.34 |
| D131E | 0.059 ± 0.0021 | 0.0825 ± 0.0042 | 0.657 ± 0.043 |
| D131W | 0.05699 ± 0.00026 | 0.07275 ± 0.00026 | 0.356 ± 0.046 |
| D131R | 0.0733 ± 0.00052 | 0.17 ± 0.022 | 1.65 ± 0.29 |
| D131L | 0.0663 ± 0.0042 | 0.119 ± 0.0091 | 0.994 ± 0.19 |
| D131C | 0.05919 ± 0.00026 | 0.0779 ± 0.0013 | 0.242 ± 0.062 |
